From the supplement of paper PMC10567573
± gives the standard deviation.

Assay: protein stability index of a GFP-peptide fusion (GPS, HEK-293T) (PSI 1-6); higher = more stable
[1] = treatment: DMSO, c terminus: a fixed tail appended
[2] = treatment: MLN4924 1 uM, 8 h, c terminus: a fixed tail appended
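Note: 24-mer peptide tiles fused after GFP, lentivirally expressed, FACS-sorted into six equal bins by GFP/DsRed ratio, decoded by Illumina sequencing, PSI is the read-weighted mean bin number.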

Sequence | protein stability index [1] | protein stability index [2] | protein stability index (treatment: DMSO, c terminus: native) | protein stability index (treatment: MLN4924 1 uM, 8 h, c terminus: native)
LRQHGPPNIVVAIAGNKCDLIDVR [RAB22A] | 2.46 ± 0.39 | 2.4 ± 0.52 | – | –
ANPYWTSRGSSVSMSGGRFRCPTC [TRIM63] | 2.65 ± 0.47 | 3.1 ± 0.4 | – | –
SWEEGMKVFEELLLDADWSINAGS [CRY1] | 2.84 ± 0.22 | 2.89 ± 0.33 | – | –
PNYLANPAFPFIYTPTAEDSAQMQ [ANKRD40] | 3.85 ± 0.28 | 4.08 ± 0.26 | – | –
DDIARIYQPKRYALSPKTTITMAH [FAM98B] | 2.77 ± 0.21 | 2.92 ± 0.17 | – | –
HPVNPPYYIPLVELVPHPETAPTT [CRYL1] | 3.51 ± 0.33 | 3.51 ± 0.22 | – | –
QTMLSHYRPFYVNKGNGIGSNEAP [TRIM29] | 2.97 ± 0.27 | 3.17 ± 0.2 | – | –
GERPRSEEDNELNLPNLAAAYSSI [GCH1] | 4.71 ± 0.3 | 4.75 ± 0.075 | – | –
KMDMSVLEISGIIMSRVNAYQQGV [PHTF1] | 2.5 ± 0.54 | 2.48 ± 0.49 | – | –
GAYDFPSPEWDTVTPEAKDLINKM [CAMK2D] | 4.536 ± 0.038 | 4.07 ± 0.093 | – | –
TSPYSDPVVSMDLDPQPITDEEEG [PTPRD] | 5.63 ± 0.19 | 5.61 ± 0.095 | – | –
NRTLWRLDLAGNNIPGDVLRAVEQ [LRRC45] | 3.01 ± 0.6 | 3.51 ± 0.43 | – | –
FIPSSHNDRDFLTRIFTEDRFAQD [PPEF2] | 2.58 ± 0.81 | 3.05 ± 0.64 | – | –
SPVRCGGPGDASPRGCGARRAGEG [WEE1] | 4.54 ± 0.19 | 4.68 ± 0.095 | – | –
LSFEQMTDAHVWNKSVTLYTVKDK [NLN] | 2.61 ± 0.61 | 3.09 ± 0.63 | – | –
EAAGVVVEEELFHQQGTPRASNRS [LMNB1] | 5.31 ± 0.41 | 5.47 ± 0.14 | – | –
ELSSLGSDSEANGFAERRIDKFGF [TBC1D10A] | 3.82 ± 0.2 | 3.83 ± 0.15 | – | –
AEDGGAYLATAKVLITVEDVNDNS [PCDHGA10] | 4.4 ± 0.21 | 4.36 ± 0.29 | – | –

Sequence | protein stability index [1] | protein stability index [2] | protein stability index (treatment: DMSO, c terminus: native) | protein stability index (treatment: MLN4924 1 uM, 8 h, c terminus: native)
HRLKLRLAIQEMVSLTSPSAPPTS [PPFIA4] | 2.5 ± 0.43 | 2.46 ± 0.24 | – | –
LLASSDAALSASMASLLEDLSHIE [SERTAD1] | 3.06 ± 0.37 | 3.27 ± 0.33 | – | –
MAAGFPYALRAYLGYQAVPSGSSG [CEBPB] | 2.1 ± 0.3 | 2.04 ± 0.18 | – | –
ECAKAFSRSAILIQHRRTHTDSKY [ZNF396] | 2.55 ± 0.21 | 2.67 ± 0.21 | – | –
AAIAFTLALFSHLVNHVNIRLQAE [SMG5] | 3.22 ± 0.4 | 3.46 ± 0.37 | – | –
VVLDMEEGTLGYAIGGTYLGPAFR [SPSB2] | 2.37 ± 0.24 | 2.19 ± 0.074 | – | –
KEMARKVIEHCSNFKEENMDTSR [ZER1] | – | – | 3.77 ± 0.32 | 4.16 ± 0.61
VGGGSGDEASAATPPSSRRVWSPP [ZBTB22] | 4.66 ± 0.2 | 4.76 ± 0.34 | – | –
SLKLALLFYILTFVGAIFNGLTLL [RTN2] | 3.88 ± 0.94 | 3.04 ± 0.11 | – | –
GVRSREDAQGSEMVTCKSEFYHDE [GAN] | 5.22 ± 0.12 | 5.08 ± 0.47 | – | –
RFEEGGRRKCGQYWPLEKDSRIRF [PTPN9] | 3.04 ± 0.36 | 2.88 ± 0.33 | – | –
NWRRKHEEFIATIRAAKGLDQALK [ZC2HC1A] | 2.71 ± 0.18 | 2.78 ± 0.24 | – | –
CVLRCSVLEIEQSMNRVKNISDAD [FEM1B] | 2.58 ± 0.37 | 2.83 ± 0.24 | – | –
VRVRQDSGAEGHSHSCYHDTRSGF [TRIM35] | 3.51 ± 0.25 | 3.62 ± 0.31 | – | –
AANPRPDALMKEQLVEMTGLSPRV [ISL2] | 4.17 ± 0.27 | 4.19 ± 0.33 | – | –
RTITFEQFQEALEELAKKRFKDKS [TPPP] | 2.54 ± 0.11 | 2.74 ± 0.43 | – | –
KETELPFPKQILDQNNVIENEETG [MIA2] | – | 5.09 ± 0.62 | – | –
GPEDLSYQIYDVSGESNSAVSTED [LARP4] | 5.39 ± 0.17 | 5.44 ± 0.13 | – | –
